Series [1] addresses T1, CELF1 T187 (RRM1-RRM2) (Xenopus, UniProt O57406 1-187). Put plainly: gel filtration.
Series [2] has as its target T1, CELF1 T187 (RRM1-RRM2). Put plainly: gel filtration. The source holds these as a separate data set. A general note: SEC sorts molecules by how far they enter the pores of the column.
The target of series [3] is T2, CELF1 RRM1 (Xenopus, UniProt O57406 1-101). Kind of series: ESI-MS.
For series [4], the target named is T1, CELF1 T187 (RRM1-RRM2). Kind of series: NMR titration.
Series [5] concerns the target T1, CELF1 T187 (RRM1-RRM2). Kind of series: EMSA.
For series [6], the target named is T2, CELF1 RRM1. Put plainly: NMR titration.
Series [7] addresses T2, CELF1 RRM1. Put plainly: gel filtration.
The target of series [8] is CELF1 RRM2 (Xenopus, UniProt O57406 108-187). Put plainly: gel filtration.
Series [9] deals with T1, CELF1 T187 (RRM1-RRM2). Put plainly: gel filtration. This is another data set of the same source.
Series [10] concerns the target T1, CELF1 T187 (RRM1-RRM2). Put plainly: ITC.
Series [11] deals with T1, CELF1 T187 (RRM1-RRM2). Kind of series: EMSA. The source holds these as a separate data set. A general note: Mobility shift assays separate free from complexed probe on a gel.
Series [12] concerns the target T2, CELF1 RRM1. Put plainly: gel filtration. The source holds these as a separate data set.
In series [13] the target is T1, CELF1 T187 (RRM1-RRM2). Kind of series: gel filtration. This is another data set of the same source.
Series [14] addresses T1, CELF1 T187 (RRM1-RRM2). Kind of series: ESI-MS.

T2 sequence (O57406 1-101): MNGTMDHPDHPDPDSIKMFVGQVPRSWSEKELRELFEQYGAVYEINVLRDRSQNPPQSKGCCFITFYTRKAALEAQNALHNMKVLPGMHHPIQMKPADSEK
T1 sequence (O57406 1-187): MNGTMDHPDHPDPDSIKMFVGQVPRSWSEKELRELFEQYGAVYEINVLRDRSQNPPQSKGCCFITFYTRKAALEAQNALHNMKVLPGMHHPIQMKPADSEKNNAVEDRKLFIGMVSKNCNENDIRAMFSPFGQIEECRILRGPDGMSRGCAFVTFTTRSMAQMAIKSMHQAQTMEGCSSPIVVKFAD
CELF1 RRM2, sequence (O57406 108-187): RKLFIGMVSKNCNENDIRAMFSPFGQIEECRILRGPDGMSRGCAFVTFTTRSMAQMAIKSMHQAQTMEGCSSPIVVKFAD

B1: CUG15 (ssRNA)
RNA: CUGCUGCUGCUGCUG
Take B1: the binding result in series [1] is listed as “binds”.

B2: UG15 (GU15 in text) (ssRNA)
RNA: UGUGUGUGUGUGUGU
Turning to B2, in [2], the binding result is “binds”.

B3: EDEN9 (ssRNA)
RNA: UUGUUUGUU
As to B3, the binding result in series [3] was “binds”.

B4: EDEN3U (x=3) (ssRNA)
RNA: UGUUUUUGU
In the case of B4, the binding result in series [4] is “binds”.

B5: ARE15 (ssRNA)
RNA: UAUUUAUUUAUUUAU
For B5, the binding result in series [5] is “no binding”.

B6: CUG2 (ssRNA)
RNA: CUGCUG
Consider B6, for which, in [6], the binding result is recorded as “binds”.

B7: ARE7 (ssRNA)
RNA: UAUUUAU
With B7, the binding result in series [7], in [8] and in series [9] was “no binding” each time.

B8: UGU (ssRNA)
RNA: UGU
What is called Kd is the free concentration of one partner at which half of the binding sites on the other are occupied at equilibrium, for simple one-to-one binding. In the case of B8, the equilibrium dissociation constant (Kd) in [10] was 64 ± 2 µM.

B9: GUCU15 (ssRNA)
RNA: UGUCUGUCUGUCUGU
As for B9, the binding result in [11] is “binds”.

B10: EDEN7m (ssRNA)
RNA: UGUUUAU
Regarding B10, the binding result in series [12] is listed as “binds”.

B11: EDEN15 (ssRNA)
RNA: UGUUUGUUUGUUUGU
As to B11, the binding result in series [13] is listed as “binds”.

B12: EDEN11 (GRE) (ssRNA)
RNA: UGUUUGUUUGU
As for B12, in series [14], the binding result was “binds”.

For the origin of these results see article PMC3201864.
